This is an account of results in patent US20140179896A1 (published 2014).

The target of experiment [1] is T1, human vascular endothelial growth factor receptor-2 Fc chimera (KDR-Fc) (human, UniProt P35968 20-764).
T1 construct: range 1-764; purchased from R&D Systems; also called hKDR; human VEGF-R2-Fc; not shown: human IgG1 Fc
The experiment is described as follows: SPR (BIAcore), target immobilized. How it is done: (§1) In vitro affinity measurements were made using surface plasmon resonance (SPR) (BIAcore) with both the human and mouse VEGF-receptor target proteins immobilized via amide chemistry on the BIAcore chip.
(§2) The binding kinetics of fibronectin-based scaffold proteins binding proteins to the target was measured using BIAcore 2000 biosensor (Pharmacia Biosensor). Human and mouse VEGF-R2-Fc fusions were immobilized onto a CM5 sensor chip and soluble binding proteins were injected at concentrations ranging from 0 to 100 nM in buffer 0 (10 mM HEPES, 150 mM NaCl, 0.005% Tween 20, pH 7.4). Sensorgrams were obtained at each concentration and were evaluated using a program, BIA Evaluation 2.0 (BIAcore), to determine the rate constants kₐ (kₒₙ) and kd (koff.) The affinity constant, KD was calculated from the ratio of rate constants […].
On the technique in general: In SPR one partner is held on a chip, and binding of the other changes the refractive index at the surface.

The target of experiment [2] is T2, mouse vascular endothelial growth factor receptor-2 Fc chimera (Flk-1-Fc) (mouse, UniProt P35918 20-762).
T2 construct: purchased from R&D Systems; also called mouse VEGF-R2-Fc; not shown: Fc part of the purchased chimera
The experiment is described as follows: SPR (BIAcore), target immobilized. How it is done: as §1, §2
T2 sequence (P35918 20-762, change not shown): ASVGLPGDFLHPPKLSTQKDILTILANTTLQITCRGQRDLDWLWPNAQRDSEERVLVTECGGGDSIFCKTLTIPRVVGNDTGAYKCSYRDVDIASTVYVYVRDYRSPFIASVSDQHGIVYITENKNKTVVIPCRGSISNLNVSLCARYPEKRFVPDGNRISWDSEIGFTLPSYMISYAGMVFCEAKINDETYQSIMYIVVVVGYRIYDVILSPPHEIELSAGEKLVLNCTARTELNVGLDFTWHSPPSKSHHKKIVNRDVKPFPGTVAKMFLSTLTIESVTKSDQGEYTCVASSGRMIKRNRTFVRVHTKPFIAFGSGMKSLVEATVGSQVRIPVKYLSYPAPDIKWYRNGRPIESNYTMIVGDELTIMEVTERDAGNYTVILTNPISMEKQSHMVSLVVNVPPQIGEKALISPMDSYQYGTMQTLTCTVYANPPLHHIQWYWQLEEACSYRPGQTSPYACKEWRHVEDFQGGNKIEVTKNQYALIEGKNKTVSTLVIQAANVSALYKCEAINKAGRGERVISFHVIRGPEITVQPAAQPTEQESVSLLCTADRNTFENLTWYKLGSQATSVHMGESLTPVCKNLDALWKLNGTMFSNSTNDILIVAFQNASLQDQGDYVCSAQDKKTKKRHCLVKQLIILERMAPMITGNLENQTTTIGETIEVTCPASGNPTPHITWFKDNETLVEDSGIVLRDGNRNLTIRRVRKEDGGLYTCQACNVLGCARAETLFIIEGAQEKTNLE

Experiment [3] deals with T3, human vascular endothelial growth factor receptor-2 Fc chimera (KDR-Fc) (human, UniProt P35968 20-764).
T3 construct: range 1-764; also called human VEGFR-2; hKDR; not shown: human IgG1 Fc
The experiment is described as follows: radioactive equilibrium binding (assay not given). How it is done: (§3) To prepare ³⁵S-labeled binding proteins for analysis, mRNA was prepared as described above for RNA-protein fusion production but the linker ligation step was omitted. The mRNA was expressed using rabbit reticulocyte lysate translation kit (Ambion) in the presence of ³⁵S-labeled Met at 30° C. for 1 hour. Expressed protein was purified on M2-agarose Flag beads (Sigma) as described above. This procedure produced the encoded protein without the nucleic acid tail. In a direct binding assay, VEGF-R2-Fc fusions in concentrations ranging from 0 to 200 nM were added to a constant concentration of the purified protein (0.2 or 0.5 nM) and incubated at 30° C. for 1 hour in buffer B. The receptor-binder complexes were captured using Protein A magnetic beads for another 10 minutes at room temperature using a Kingfisher™ The beads were washed with six reaction volumes of buffer B. The protein was eluted from the beads with 100 μL of 0.1 M KOH. […] of the reaction mixture and elution were dried onto a LumaPlate-96 (Packard) and the amount of ³⁵S on the plate was measured using a TopCount NXT instrument (Packard). The amount of fibronectin-based scaffold protein bound to the target was estimated as a percent of radioactivity eluted from Protein A magnetic beads compare to radioactivity in the reaction mixture. Nonspecific binding of fibronectin-based scaffold proteins to the beads was determined by measuring binding in the absence of KDR-Fc and represented less than 1-2% of the input. Specific binding was obtained through subtraction of nonspecific binding from total binding. Data was analyzed using the GraphPad Prizm software (GraphPad Software, Inc, San Diego, Calif.), fitted using a one site, non-linear binding equation.

Experiment [4] has as its target T4, mouse vascular endothelial growth factor receptor-2 Fc chimera (Flk-1-Fc) (mouse, UniProt P35918 20-762).
T4 construct: Purchased from R&D Systems; also called mouse VEGF-R2; not shown: Fc part of the purchased chimera
Briefly: radioactive equilibrium binding (assay not given). How it is done: as §3
T4 sequence (P35918 20-762, change not shown): as above

The target in experiment [5] is T4, mouse vascular endothelial growth …. The experiment is described as follows: binding to 1 nM Flk-1-Fc, % of input; radioactive equilibrium binding (assay not given). An outline of the steps:
(§4)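 ³⁵S-Met-labeled fibronectin-scaffold binders, made by reticulocyte lysate translation (30° C, 1 h) and Flag-purified, were held at 0.2 or 0.5 nM and incubated with 0–200 nM VEGF-R2-Fc for 1 h at 30° C in buffer B. Complexes were captured on Protein A magnetic beads, washed, KOH-eluted and counted.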

In experiment [6] the target is full-length human KDR on cells (human, UniProt P35968 20-1356). The experiment is described as follows: cell-based or functional assay.
For experiment [7], the target named is T3, human vascular endothelial growth …. Briefly: binding to 1 nM KDR-Fc, % of input; radioactive equilibrium binding (assay not given). The gist of the method: as §4
For experiment [8], the target named is full-length human KDR on cells (human, UniProt P35968 20-1356). Briefly: cell-based or functional assay. The source holds these as a separate data set.
The target of experiment [9] is T1, human vascular endothelial growth …. The experiment is described as follows: BIAcore, target-Fc immobilized. How it is done: as §2
Experiment [10] deals with T2, mouse vascular endothelial growth …. The experiment is described as follows: BIAcore, target-Fc immobilized. How it is done:
as §2

In experiment [11] the target is murine VEGFR-2/EpoR chimera (flk-1/EpoR fusion, pmKE2) on cells (mouse; human, UniProt P35918 20-762; P19235 251-508, limits assumed). Briefly: cell-based or functional assay.
Chain of murine VEGFR-2/EpoR chimera (flk-1/EpoR fusion, pmKE2) on cells (P35918 other isoform, or with tags, fused parts or gaps mutant limits assumed, form in doubt): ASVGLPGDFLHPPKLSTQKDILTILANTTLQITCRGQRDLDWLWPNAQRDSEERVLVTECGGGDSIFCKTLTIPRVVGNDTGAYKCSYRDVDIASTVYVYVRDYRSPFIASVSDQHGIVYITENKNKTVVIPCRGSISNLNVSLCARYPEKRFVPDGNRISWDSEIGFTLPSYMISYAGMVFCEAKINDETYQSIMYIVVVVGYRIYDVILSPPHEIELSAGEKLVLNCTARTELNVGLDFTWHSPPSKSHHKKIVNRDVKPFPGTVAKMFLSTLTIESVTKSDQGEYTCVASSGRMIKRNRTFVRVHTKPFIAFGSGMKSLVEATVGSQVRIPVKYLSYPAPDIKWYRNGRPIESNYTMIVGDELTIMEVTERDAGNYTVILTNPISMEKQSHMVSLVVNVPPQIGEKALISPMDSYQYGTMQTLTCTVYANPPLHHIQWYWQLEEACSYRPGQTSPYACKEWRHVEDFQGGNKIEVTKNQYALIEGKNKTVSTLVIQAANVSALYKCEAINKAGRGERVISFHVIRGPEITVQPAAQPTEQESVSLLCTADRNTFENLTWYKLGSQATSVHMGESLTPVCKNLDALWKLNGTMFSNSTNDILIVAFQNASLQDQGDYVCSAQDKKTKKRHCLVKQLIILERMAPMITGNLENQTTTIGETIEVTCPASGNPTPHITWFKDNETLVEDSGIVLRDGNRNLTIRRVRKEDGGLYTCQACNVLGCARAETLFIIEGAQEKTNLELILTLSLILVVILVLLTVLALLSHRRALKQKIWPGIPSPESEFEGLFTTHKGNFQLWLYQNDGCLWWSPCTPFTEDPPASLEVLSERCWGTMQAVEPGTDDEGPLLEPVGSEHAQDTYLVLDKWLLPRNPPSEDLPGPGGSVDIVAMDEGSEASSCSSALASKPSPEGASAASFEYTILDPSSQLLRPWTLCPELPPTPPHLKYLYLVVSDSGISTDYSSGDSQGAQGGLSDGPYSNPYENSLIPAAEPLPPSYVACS
Experiment [12] concerns the target human KDR/EpoR fusion (phKE8) on Ba/F3 cells (human, UniProt P35968 20-764; P19235 251-508, limits assumed). Briefly: cell-based or functional assay.
For experiment [13], the target named is T4, mouse vascular endothelial growth …. Briefly: clones from the 159Q(8)L library; binding per FIG. 4. Here is the method: as §3

B1: M5FL C100 (designed binder)
chain: MGVSDVPRDLEVVAATPTSLLISWRHPHFPTRYYRITYGETGGNSPVQEFTVPLQPPLATISGLKPGVDYTITVYAVTKERNGRELFTPISINYRTEIDKPCQHHHHHH
notes: unmodified M5FL with C-terminal extension, Cys100 and His tag; a significant percentage is produced with the initial methionine removed; also called C100-form of the M5FL protein
As a reminder, the Kd is a measure of binding affinity in units of concentration. For orientation: koff means the first-order rate constant of dissociation. The low end stands for a long-lived complex, the high end for a short-lived complex. As usually defined, the kon is a measure of how fast the partners come together. A high value points to fast association. In the case of B1, in experiment [1], the dissociation constant Kd was found to be 0.9 nM, the off-rate constant (koff) amounted to 6.7e-05 s⁻¹ and the kon came out at 74000 M⁻¹ s⁻¹. In experiment [2], this molecule had an equilibrium dissociation constant (Kd) of 2.1 nM, a koff of 0.0003 s⁻¹ and a kon of 146000 M⁻¹ s⁻¹.

B2: M5FL-PEG20 (designed binder)
chain: MGVSDVPRDLEVVAATPTSLLISWRHPHFPTRYYRITYGETGGNSPVQEFTVPLQPPLATISGLKPGVDYTITVYAVTKERNGRELFTPISINYRTEIDKPCQHHHHHH
modifications: linear 20 kD PEG coupled by maleimide chemistry to the cysteine residue at position 100
notes: also called M5FL 20K PEG
In experiment [1], B2 had a Kd of 5.9 nM, a koff of 5.4e-05 s⁻¹ and a kon of 9000 M⁻¹ s⁻¹. In experiment [2], this molecule returned a dissociation constant (Kd) of 22.8 nM, an off-rate constant (koff) of 0.00055 s⁻¹ and a kon of 24000 M⁻¹ s⁻¹.

B3: E26 (designed binder)
chain: EVVAATPTSLLISWRHPHFPTRYYRITYGETGGNSPVQEFTVPLQPPTATISGLKPGVDYTITGYAVTVERNGRELMTPISINYRT
notes: Del 1-8 10Fn3 clone; Tags not included
For the molecule B3, the dissociation constant Kd in experiment [3] worked out at 1.66 nM; in experiment [4], 2.05 nM. In addition, the “Binding to 1 nM FLK, %” value in [5] was 20%. Moreover, in experiment [6], the “HUVEC proliferation assay: decrease in proliferation” value (“HUVEC proliferation assay: decrease” for short) was around 40%. The “Binding to 1 nM KDR, %” value in [7] came to 27%.

B4: E29 (designed binder)
chain: EVVAATPTSLLISWRHPHFPTRYYRITYGETGGNSPVQEFTVPLQPPTATISGLKPGVDYTITGYAVTVERNGRVLMTPISINYRT
notes: as for B3
With B4, the Kd in experiment [3] is 1.51 nM; in experiment [4], 0.91 nM. For the same molecule, the “Binding to 1 nM FLK, %” value in experiment [5] came to 44%. The “HUVEC proliferation assay: decrease” value in [6] was around 40%. For the same molecule, the “Binding to 1 nM KDR, %” value in experiment [7] was 41%.

B5: E18 (designed binder)
chain: EVVAATPTSLLISWRHPHFPTRYYRITYGETGGNSPVQEFTVPLQPPTATISGLKPGVDYTITGYAVTVERNGRELNTPISINYRT
Turning to B5, in [6], the “HUVEC proliferation assay: decrease” value was around 40%.

B6: E19 (designed binder)
chain: EVVAATPTSLLISWRHPHFPTRYYRITYGETGGNSPVQEFTVPLQPPTATISGLKPGVDYTITGYAVTVERNGRHLMTPISINYRT
notes: as for B3
B6: the Kd is 1.3 nM in [3] and 0.66 nM in experiment [4]. The “Binding to 1 nM FLK, %” value in experiment [5] is 40%. In experiment [6], the “HUVEC proliferation assay: decrease” value is around 40%. Also, the “Binding to 1 nM KDR, %” value in [7] was determined as 38%.

B7: M5FL (designed binder)
chain: VSDVPRDLEVVAATPTSLLISWRHPHFPTRYYRITYGETGGNSPVQEFTVPLQPPLATISGLKPGVDYTITGYAVTKERNGRELFTPISINYRT
notes: extension and tag left out
As to B7, the “Inhibition of VEGF-induced proliferation of HUVEC cells (IC50, nM)” value in experiment [8] is 8.5 nM. In experiment [9], this molecule yielded an equilibrium dissociation constant (Kd) of 0.89 nM, a koff of 9.2e-05 s⁻¹ and an on-rate constant (kon) of 100000 M⁻¹ s⁻¹. In experiment [10], this molecule yielded a Kd of 2.1 nM, an off-rate (koff) of 0.000582 s⁻¹ and an on-rate (kon) of 280000 M⁻¹ s⁻¹. The “Inhibition of VEGF-induced proliferation, Ba/F3-Flk (IC50, nM)” value in [11] amounted to 5.1 nM. In experiment [12], the “Inhibition of VEGF-induced proliferation, Ba/F3-KDR (IC50, nM)” value is 3.9 nM.

B8: M8 (designed binder)
chain: VSDVPRDLEVVAATPTSLLISWRHPHFPTHYYRITYGETGGNSPVQEFTVPLQPPAATISGLKPGVDYTITGYAVTKERSGRELFTPISINYRT
notes: 10Fn3 clone with WT N-terminus; Tags not included
For B8, the binding result in experiment [13] was “binds”.

B9: M7 (designed binder)
chain: VSDVPRDLEVVAATPTSLLISWRHPHFPTRYYRITYGETGGNSPVQEFTVPLQPTTATISGLKPGVDYTITGYAVTWERNGRELFTPISINYRT
notes: as for B8
As to B9, in experiment [13], the binding result was “binds”.
